# Test results published in article PMC5677552 (Traffic (Copenhagen, Denmark), 2017).
# Tests used:
# [1] = molecular target: T1, GST-nup42-CTD/MBP-gle1-CTD^H337R/dbp5^L327V trimeric complex (Saccharomyces cerevisiae, UniProt P20449+Q12315, P20449:L327V/Q12315:H337R); assay: GST pull-down, IP6-dependent complex formation; type: binding; conditions: 50 uM IP6, pH 7.5, 4 C; indirect read-out by complex formation
# T1 sequence (Q12315 244-538 H337R): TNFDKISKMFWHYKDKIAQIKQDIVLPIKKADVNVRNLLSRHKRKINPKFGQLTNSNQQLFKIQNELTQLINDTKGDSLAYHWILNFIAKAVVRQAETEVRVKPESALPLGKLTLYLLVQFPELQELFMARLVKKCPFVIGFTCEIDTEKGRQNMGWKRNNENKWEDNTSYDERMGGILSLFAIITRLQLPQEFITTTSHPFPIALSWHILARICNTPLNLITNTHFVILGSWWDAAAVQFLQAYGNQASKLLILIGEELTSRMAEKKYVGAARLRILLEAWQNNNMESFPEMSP
# T1 sequence (P20449 1-482 L327V): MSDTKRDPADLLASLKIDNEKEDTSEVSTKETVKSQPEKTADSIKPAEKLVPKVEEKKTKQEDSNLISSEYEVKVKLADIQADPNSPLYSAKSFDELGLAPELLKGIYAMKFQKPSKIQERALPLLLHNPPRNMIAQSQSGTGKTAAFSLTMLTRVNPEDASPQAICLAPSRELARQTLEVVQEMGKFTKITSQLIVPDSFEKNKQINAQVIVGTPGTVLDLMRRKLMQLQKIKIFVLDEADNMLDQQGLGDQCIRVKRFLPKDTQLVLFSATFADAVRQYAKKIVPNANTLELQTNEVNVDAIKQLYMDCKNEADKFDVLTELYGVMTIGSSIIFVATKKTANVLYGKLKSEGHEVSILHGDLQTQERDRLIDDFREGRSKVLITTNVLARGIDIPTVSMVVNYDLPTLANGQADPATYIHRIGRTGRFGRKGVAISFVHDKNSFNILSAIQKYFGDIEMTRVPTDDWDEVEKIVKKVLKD
# T1 sequence (P49686 365-430 partner): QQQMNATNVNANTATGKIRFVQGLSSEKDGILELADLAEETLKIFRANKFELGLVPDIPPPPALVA
# [2] = molecular target: biotin-nup42^408–424 peptide (S. cerevisiae) (UniProt P49686); assay: BLI
Compound,"GST pull-down, IP6-dependent complex formation (SDS-PAGE) [1]",Kd [2] [nM]
O=P(O)(O)O[C@H]1[C@H](OP(=O)(O)O)[C@@H](OP(=O)(O)O)[C@H](OP(=O)(O)O)[C@@H](OP(=O)(O)O)[C@H]1OP(=O)(O)O [IP6],complex was observed only in the presence of IP6,–
MBP-gle1-CTD^QKEE>AAAA (from UniProt Q12315 1-538) (domain or fragment),–,599
MBP-gle1-CTD (from UniProt Q12315 1-538) (domain or fragment),–,91.5
